The source of these data is a protein production outcome set (Wang et al. 2014).

The data set can be described thus: label from the status in PepcDB records.

“MYPKQFLKFGETSLFQETVLRCLEVSDISEVFVVTNEAQKFFVIGQIKEAGYSIPPENILIEPEGKNTLPAIFFGMKEIEKKFGDSIVGVFSSDHVLDRAAMATISSAENLASDYLVTFGVVPTFPHTGYGYIKASEACSPGYRVSEFREKPDFETAKKYIEEGCLWNSGMFLFETRLFFEEARKHAPSVYGCFEKEGDINQIYECVDNISIDYGIMEKSDKVAVVRLDHKWSDLGNFAAIYDELEKDSVGNVIHDCDPMLLNSDGNLVYSRCGKIVSLIDVKDMVVVDTSDALLICPKSSSQKVKEIVSELKGRKDERAFIGQTVYRPWGSYTLLDASPGHKIKNITVLSDHKLSLQLHYHRSEHWVVVKGMACVEVDGKQFFLGPGESTFIRAGQKHRLSNPGKLPLEIIEVQLGELVDEEDIVRFDDVYGRRLEHHHHHH”: the protein production result is “not failed”.
For “MYPVDLHMHTVASTHAYSTLSDYIAQAKQKGIKLFAITDHGPDMEDAPHHWHFINMRIWPRVVDGVGILRGIEANIKNVDGEIDCSGKMFDSLDLIIAGFHEPVFAPHDKATNTQAMIATIASGNVHIISHPGNPKYEIDVKAVAEAAAKHQVALEINNSSFLHSRKGSEDNCREVAAAVRDAGGWVALGSDSHTAFTMGEFEECLKILDAVDFPPERILNVSPRRLLNFLESRGMAPIAEFADL”, the protein production result is given as “not failed”.
On to “MYQKFKGGDLMIHGGDIYTEGVFKGRELLDYSSNINPLGIPKSFLNNIDEGIKNLGVYPDVNYRRLNKSIENYLKLKDIGIVLGNGASEIIELSISLFEKILIIVPSYAEYEINAKKHGVSVVFSYLDENMCIDYEDIISKIDDVDSVIIGNPNNPNGGLINKEKFIHVLKLAEEKKKTIIIDEAFIEFTGDPSSSFVGEIKNYSCLFIIRAMTKFFAMPGIRFGYGITNNKEIAAKIKAKQNPWNINCFAEMAAINCLKDTNYIEESLLWIKKERKRFIEELNKIGFIKRVFSPHANFVLCRLENISGEKLYDSLLKEDIVIRRCCNFIGLDDSFVRFAIKDEKKNTKFLRALKGVENNL”, for which the protein production entry is listed as “not failed”.
With “MYQVVASDLDGTLLSPDHFLTPYAKETLKLLTARGINFVFATGRHYIDVGQIRDNLGIRSYMITSNGARVHDSDGQQIFAHNLDRDIAADLFEIVRNDPKIVTNVYREDEWYMNRHRPEEMRFFKEAVFNYKLYEPGELDPQGISKVFFTCEDHEHLLPLEQAMNARWGDRVNVSFSTLTCLEVMAGGVSKGHALEAVAKMLGYTLSDCIAFGDGMNDAEMLSMAGKGCIMANAHQRLKDLHPELEVIGSNADDAVPRYLRKLYLD”, the protein production entry is on record as “not failed”.
In the case of “MYRDRIRLPSLMSKVMSAADAAALIEDGMTVGMSGFTRAGEAKAVPHALAERAKVTPLKISLMTGASLGNDLDKQLTESGVLSRRMPFQVDSTLRKAINNGTVMFIDQHLSDTVELLRNRQIKAVDLAVIECVAITEEGHLVLSTSVGNSASFAILAKQVIVEINLSQPLELEGLHDIYIPSYRPTRLPIPVLEADSRIGSHAVKIDPAKIVGIVISNQPDSPSTVTPPDADTQAIANHLVEFFKKEVREDRLTDKLMPLQAGIGNIANAVMHGLLESPFTDLTMYSEVLQDSTFDLFDAGKLTFASGSSMTLSAAKHAEVFADFNRYKSRLVLRPQEISNHPEVIRRLGIIGINTALEFDLYGNVNSTHICGTRMMNGIGGSGDFSRNAHLAIFVTKSIAKGGAISSVVPMVSHVDHTEHDVDILVTEQGLADLRGLAPRERARVIIDNCVHADYRDALNAYFDAACALGGHTPHILREALSWHINLEENGRMLPT” it was “failed”.
